Measurements reported in patent US20160053014A1 (SORRENTO THERAPEUTICS, published 2016).
Positions count from the first letter of the chain named.

B1: 11E3 (antibody, V domains shown)
VH: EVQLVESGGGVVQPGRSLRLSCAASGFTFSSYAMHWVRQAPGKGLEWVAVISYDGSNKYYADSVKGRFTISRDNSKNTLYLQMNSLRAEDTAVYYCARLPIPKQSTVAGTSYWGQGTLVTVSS
VL: LPVLTQPASVSGSPGQSITISCTGTSSDVGGYNYVSWYQQHPGNAPKLMIYDVSNRPSGVSNRFSGSKSGNTASLTISGLQAEDEADYYCSSYTSSSTLYVFGTGTKLTVL
notes: tested as human IgG
B2: 14E5 (antibody, V domains shown)
VH: EVQLVESGGGVVQPGRSLRLSCAASGFTFSSYGMHWVRQAPGKGLEWVAVISYDGSNKYYADSVKGRFTISRDNSKNTLYLQMNSLRAEDTAVYYCAKVYSRGSDYWGQGTLVTVSS
VL: QSVLTQPASVSGSPGQSITISCTGTSSDVGGYNYVSWYQQHPGKAPKLLIYDVSRRPSGISSRFSGSKSGNTASLTISGLQTEDDGDYYCLSYTTSRAVVFGGGTKLTVL
notes: tested as human IgG
B3: 15G11 (antibody, V domains shown)
VH: QVQLVQSGGGVVQPGGSLRLSCAASGFAFNRYGMHWVRQAPGQGLEWVAVISYDGSLKYYADSVKGRFTISRDNSNNTLYLQMNSLSADDTAVYYCAKGGAALDSWGQGTLVTVSS
VL: DVVMTQSPLSSPVTLGQPASISCRSSQSLVHSDGTTYLSWLQQRPGQPPRLLIYKISNRFSGVPDRFSGSGAGTDFTLKISRVEAEDVGVYYCMQTTQFPPMFGQGTKVEIK
notes: tested as human IgG
B4: 16F9 (antibody, V domains shown)
VH: EVQLVESGGEVKKPGASVKLSCKSSGYTFTSYYMHWVRQAPGQGLEWMGIINPSGGSTSSAQKFQGRVTMTRDTSTRTVYMELSSLRSEDTAVYYCARGAPNWNYARTLFDYWGQGTLVTVSS
VL: SYELTQPRSVSGSPGQSVTISCTGTSSDVGGYNSVSWYQQHPGKAPKLMIYDVSKRPSGVPDRFSGSKSGNTASLTISGLQAEDEADYYCSSYSSSTTHVVFGGGTKLTVL
notes: tested as human IgG
B5: 13E10 (antibody, V domains shown)
VH: EVQLVQSGAEVKKPGASLKISCRASGYTFTRNYIHWVRQAPGQGLEWLGIINPNGGSTRYSQKFQGRVTMTRDTSTRTVYMELSSLRSEDTAVYYCAREAPKYCSGSSCYSGGVDYWGQGTLVTVSS
VL: QPVLTQPLSASGTPGQRVTISCSGSSSNIGSNYVYWYQQLPGTAPKLLIYRNYQRPSGVPDRFSGSTSGTSASLAISGLRSEDEADYHCAAWDGSMRGWVFGGGTKLTVL
notes: tested as human IgG
B6: 11G3 (antibody, V domains shown)
VH: EVQLVQSGGGVVQPGRSLRLSCAASGFTFSSYAMHWVRQAPGKGLEWVAVISYDGSNKYYADSVKGRFTISRDNSKNTLYLQMNSLRAEDTAVYYCARLTRGSDYYGSGRSMNDYWGQGTLVTVSS
VL: DIVMTQTPLSLPVTLGQPASISCRSSQSLVHSDGNTYLNWFQQRPGQSPRRLIYKVSNRDSGVPDRFSGSGSGTDFTLKISRVEAEDVGVYYCMQGTHWPPTFGQGTKVEIK
notes: tested as human IgG
B7: 12D3 (antibody, V domains shown)
VH: EVQLVESGGGLVKPGRSLRLSCAASGFTFSSYAMHWVRQAPGKGLEWVAVISYDGSNKYYADSVKGRFTISRDNSKNTLYLQMNSLRAEDTAVYYCARLRWLDYWGQGTLVTVSS
VL: QPVLTQPASVSGSPGQSIAISCTGTSSDVGSNNRVSWYQQHPGKAPKLMIYEVDKRPSGVSNRFSGSKSGNTASLTISGLQAEDEADYYCGTWDSSLSAYVFGTGTKLTVL
notes: tested as human IgG
B8: 12G10 (antibody, V domains shown)
VH: EVQLVESGGGVVQPGRSLRLSCAASGFTFSSYAMHWVRQAPGKGLEWVAVISYDGSNKYYADSVKGRFTISRDNSKNTLYLQMNSLRAEDTAVYYCARIAVAGTHFDYWGQGTLVTVSS
VL: SYELMQPPSVSGTPGQRVTISCSGSTSNVGSNTVNWYRQFPGTAPKLLIYANNQRPSGVPDRFSGSKSGTSASLAISGLQSENEADYYCAAWDDSLNGYVFGTGTKLTVL
notes: tested as human IgG
B9: 13E4 (antibody, V domains shown)
VH: QITLKESGGGVVQPGRSLRLSCAASGFTFSSYGMHWVRQAPGKGLEWVAVISYDGSNKYYADSVKGRFTISRDNSKNTLYLQMNSLRAEDTAVYYCANNGWATYPDYWGQGTLVTVSS
VL: QPVLTQPASVSGSPGQSITISCTGTSSDVGGYNYVSWYQQHPGKAPKLMIYDVSNRPSGVSNRFSGSKSGNTASLTISGLQAEDEADYYCSSYTSSSTLVFGGGTKLTVL
notes: tested as human IgG
B10: 16F8 (antibody, V domains shown)
VH: B7 VH with V5L, K13Q, R16G, A33G, M83L, L99G, R100Q, W101N
VL: B9 VL with V35I, D52E, T94R, L99Q
notes: tested as human IgG
B11: 13F9 (antibody, V domains shown)
VH: EVQLLESGGGLIQPGGSLRLSCAASGFIFSRYGMHWVRQAPGKGLEWVAVTSYDGRSKYYTDSVQGRFTISRDNSKNTLDLQMNSLRAEDTAVYYCARLHTVGPWHFDLWGRGTLVTVSS
VL: B9 VL with Q1S, P2Y, V3E, A8R, I18V, A45V, D52E, T72A
notes: tested as human IgG
B12: 11A7 (antibody, human IgG1, V domains shown)
VH: EVQLVESGGGLVQPGGSLRLSCAASGFTVSSNYMSWVRQAPGKGLEWVSVIYSGGSTYYADSVKGRFTISRHNSKNTLYLQMNSLRAEDTAVYYCARGYVVWGQGTLVTVSS
VL: QPVLTQPPSVSKDLRQTATLTCTGNSNNVGNQGATWLQQHQGHPPKLLSYKNNNRPSGISERFSASRSGNTASLTITGLQPEDEADYYCSAWDSSLSAWVFGGGTQLTVL
notes: 'Antibody 11A7 is a fully human IgG1'
B13: 12D11 (antibody, V domains shown)
VH: EVQLVQSGAEVKKPGASVKVSCKASGYTFTGYYLNWVRQAPGQGLEWMGWINPNNGGTNYAQRFQGRVTMTRDTSISTAYMDLSRLRSDDTAVYYCVRGTRKYYHDSNGRRRDYYYGMDVWGQGTTVTVSS
VL: AIRMTQSPSSLSASVGDRVTITCRASQSISSYLNWYQQKPGKAPKLLIYAASSLQSGVPSKFSGSGSGTEFTLTISSLQPEDFATYYCQQYKFYPPNFGGGTKVEI
notes: tested as human IgG

target: T1, murine CXCR5 (murine, UniProt Q04683 1-374); test: flow cytometry on LPS-cultured mouse spleen cells, IgG titration
T1 construct: whole, on cells; Endogenous receptor on mouse spleen cells cultured with LPS
T1 sequence (looked up): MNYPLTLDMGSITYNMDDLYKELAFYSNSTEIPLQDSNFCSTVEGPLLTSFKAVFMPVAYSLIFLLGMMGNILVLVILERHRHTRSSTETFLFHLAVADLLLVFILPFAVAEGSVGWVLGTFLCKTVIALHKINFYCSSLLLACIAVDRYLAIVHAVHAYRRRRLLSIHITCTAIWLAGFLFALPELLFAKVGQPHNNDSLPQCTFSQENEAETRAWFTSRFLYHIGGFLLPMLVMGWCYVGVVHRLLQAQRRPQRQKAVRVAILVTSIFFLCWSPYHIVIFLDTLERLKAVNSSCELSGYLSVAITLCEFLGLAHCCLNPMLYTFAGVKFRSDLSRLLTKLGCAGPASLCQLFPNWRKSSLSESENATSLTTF
Protocol: In this example, mouse spleen cells were harvested from either C57B1/6 or athymic nu/nu mice. Cells were cultured at 2×10⁶ per ml with LPS at 10 micrograms per ml in RPMI+10% FCS for up to 4 days at 37° C. in 5% CO2. Cells were harvested, washed and resuspended in FACS Buffer (2% Fetal Bovine Serum in PBS) at 1×10⁶ cells/ml and 50 μl (0.5×10⁵ cells) were aliquoted into the wells of a 96-well plate. Plated cells were spun down and the supernatant discarded. Cells were resuspended in 30 μl FACS Buffer containing serially diluted concentrations of CXCR5 IgG in triplicate. Plates were incubated for 1 hr at 4° C. and then washed 2x with FACS Buffer. Cells were resuspended in 50 μl goat anti-human IgG (γ-chain specific)-PE conjugated secondary antibody (Southern Biotech #2040-09) diluted 1:500 in FACS Buffer. Cells were further incubated for 30 min at 4° C. and then washed 1× with FACS Buffer. The cells were resuspended in a final volume of 30 μl FACS Buffer and analyzed using the Intellicyt Flow Cytometer. Median fluorescence in the FL-2H channel was determined using FlowJo software and EC₅₀ value was determined by plotting the data in GraphPad Prism and analyzing using a variable slope non-linear regression.

Row | Binder | EC50 [nM]
1 | B1 | 11
2 | B2 | 2.8
3 | B3 | 4.8
4 | B4 | 3.1
5 | B5 | 25
6 | B6 | 37
7 | B7 | 27
8 | B8 | 2.5
9 | B9 | 5.5
10 | B10 | 15
11 | B11 | 23

target: T2, human CXCR5 (human, UniProt P32302 1-372); test: cell-based or functional assay
T2 sequence (looked up): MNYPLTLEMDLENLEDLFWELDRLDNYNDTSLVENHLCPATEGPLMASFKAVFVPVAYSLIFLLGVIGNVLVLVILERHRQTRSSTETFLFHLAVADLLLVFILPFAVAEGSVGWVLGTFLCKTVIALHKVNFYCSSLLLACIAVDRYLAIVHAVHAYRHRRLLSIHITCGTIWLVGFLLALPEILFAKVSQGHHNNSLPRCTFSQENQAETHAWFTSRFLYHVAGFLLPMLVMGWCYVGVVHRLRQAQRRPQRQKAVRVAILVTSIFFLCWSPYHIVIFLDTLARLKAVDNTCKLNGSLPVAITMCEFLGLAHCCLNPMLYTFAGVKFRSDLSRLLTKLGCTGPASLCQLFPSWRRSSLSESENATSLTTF

Row | Binder | IC50 [nM] of mAbs in calcium flux assay using CHO-CXCR5 cells (challenge with 9 nM CXCL13) [nM]
12 | B12 | 5

target: T2, human CXCR5; test: cell-based or functional assay; remark: another data set of the same source

Row | Binder | IC50 [nM] of mAbs in chemotaxis assay using HS-Sultan cells (25 nM CXCL13) [nM]
13 | B12 | 4.8

target: T2, human CXCR5; test: flow cytometry on CHO-CXCR5 cells, IgG titration
Description: This example describes a cellular binding assay to determine the EC₅₀ for anti-CXCR5 antibodies binding to human CXCR5. […] In this example, CHO-CXCR5 cells were lifted from culture flasks using non-enzymatic Cell Dissociation Buffer—PBS based (Life Technologies #13151-014). Cells were resuspended in FACS Buffer (2% Fetal Bovine Serum in PBS) at 1×10⁶ cells/ml and […] were aliquoted into the wells of a 96-well plate. Plated cells were spun down and the supernatant discarded. Cells were resuspended in 30 μl FACS Buffer serially diluted concentrations of CXCR5 IgG in triplicate. Plates were incubated for 1 hr at 4° C. and then washed 2× with FACS Buffer. Cells were resuspended in 50 μl goat anti-human IgG (γ-chain specific)-PE conjugated secondary antibody (Southern Biotech #2040-09) diluted 1:500 in FACS Buffer. Cells were further incubated for 30 min at 4° C. and then washed 1× with FACS Buffer. The cells were resuspended in a final volume of 30 μl FACS Buffer and analyzed using the Intellicyt Flow Cytometer. Median fluorescence in the FL-2H channel was determined using FlowJo software and EC₅₀ value was determined by plotting the data in GraphPad Prism and analyzing using a variable slope non-linear regression.

Row | Binder | EC50 [nM]
14 | B1 | 1.8
15 | B12 | 0.9
16 | B2 | 0.3
17 | B13 | 2.1
18 | B3 | 0.4
19 | B4 | 0.7
20 | B5 | 0.7
21 | B6 | 2.6
22 | B7 | 1.3
23 | B8 | 0.5
24 | B9 | 0.9
25 | B10 | 3.6
26 | B11 | 1.6
